{
  "source": "patent US20220227848A1",
  "about": "(NORDIC BIOSCIENCE A S, published 2022)",
  "binders": {"B1": {"name": "monoclonal antibody 10F6 (antibody, mouse IgG2b, kappa, V domains shown)", "VH": "EVKLVESGGGLVKPGGSLKLSCAASGFTFSSYAMSWVRQTPEKRLAWVASISTAGRTYYPDTVRGRITISRDNARNILYLQMSSLRSEDTAIYYCARPDYDYDGYINWGQGTLVTVSA", "VL": "DIVMTQAAFSNPVTLGTSAYISCRSSKSLLHSNGVTYLYWYLQKPGQSPQLLIYQMSNLASGVPDRFSSSGSGTDFTLRISRVEAEDVGVYYCAQNLELPLTFGAGTKLELKR", "notes": "Mouse (Balb/C) hybridoma antibody purified on an IgG column; also called PRO-C23 antibody 10F6; PRO-C23 antibody"}},
  "key": {"[1]": {"biological_target": "T1, selection peptide GLPVPGCWHK, the last 10 amino acids of the C-terminus of type XXIII collagen alpha 1 chain …", "T1 construct": "Synthetic peptide (Genscript); also called target peptide; standard peptide", "T1 peptide": "GLPVPGCWHK", "assay": "figure legend (FIG. 1A/1B), PRO-C23 competitive ELISA", "experimental": "(§1) ELISA-plates used for the assay development were Streptavidin-coated from Roche (cat.: 11940279). All ELISA plates were analyzed with the ELISA reader from Molecular Devices, SpectraMax M, (CA, USA). The selected monoclonal antibody was labelled with horseradish peroxidase (HRP) using the Lightning link HRP labeling kit according to the instructions of the manufacturer (Innovabioscience, Babraham, Cambridge, UK). A 96-well streptavidin plate was coated with biotin-[…] (SEQ. ID No. 1) (Genscript, USA) and incubated 30 minutes at 20° C. 20 μL of standard peptide or samples were added to appropriate wells, followed by 100 μL of HRP conjugated monoclonal antibody 10F6, and incubated 20 hour at 4° C. Finally, 100 μL tetramethylbenzidine (TMB) (Kem-En-Tec cat.4380H) was added and the plate was incubated 15 minutes at […] in the dark. All the above incubation steps included shaking at 300 rpm. After each incubation step, the plate was washed five times. The TMB reaction was stopped by adding 100 μL of stopping solution (1% H₂SO₄) and measured at 450 nm with 650 nm as the reference.\n(§2) Like type XXIII collagen, type XIII and XXV collagens are also transmembrane collagens and share highly similar sequences in their C-terminus (FIG. 1A). To fully investigate the specificity of the antibody, a series of peptides were synthesized and included in the inhibition test. […] (SEQ. ID No. 5) (FIG. 1B)."}, "[2]": {"biological_target": "T2, elongated peptide GLPVPGCWHKA", "T2 peptide": "GLPVPGCWHKA", "assay": "competitive ELISA (PRO-C23 assay), peptide inhibition test", "experimental": "as §1, §2"}, "[3]": {"biological_target": "T3, truncated peptide GLPVPGCWH", "T3 peptide": "GLPVPGCWH", "assay": "competitive ELISA (PRO-C23 assay), peptide inhibition test", "experimental": "as §1, §2"}, "[4]": {"biological_target": "T4, type XIII collagen C-terminal peptide GLPVQGCWNK", "T4 construct": "Synthetic peptide (Genscript); also called peptide from type XIII collagen; deselection peptide", "T4 peptide": "GLPVQGCWNK", "assay": "competitive ELISA (PRO-C23 assay), peptide inhibition test", "experimental": "as §1, §2"}, "[5]": {"biological_target": "T5, type XXV collagen C-terminal peptide GLPMPGCWQK", "T5 construct": "Synthetic peptide (Genscript); also called peptide from type XXV collagen; deselection peptide", "T5 peptide": "GLPMPGCWQK", "assay": "competitive ELISA (PRO-C23 assay), peptide inhibition test", "experimental": "as §1, §2"}},
  "data": [
    {"binder": "B1", "values": [
      {"measurement": "binding result", "setting": "[1]", "value": "binds"},
      {"measurement": "binding result", "setting": "[2]", "value": "no binding"},
      {"measurement": "binding result", "setting": "[3]", "value": "no binding"},
      {"measurement": "binding result", "setting": "[4]", "value": "no binding"},
      {"measurement": "binding result", "setting": "[5]", "value": "no binding"}
    ]}
  ]
}
